Results published in IntAct's records for PubMed 15020713.

B1: EH domain-containing protein 1 (Homo sapiens), Q9H4M9 (parent)
chain: MFSWVSKDARRKKEPELFQTVAEGLRQLYAQKLLPLEEHYRFHEFHSPALEDADFDNKPMVLLVGQYSTGKTTFIRHLIEQDFPGMRIGPEPTTDSFIAVMHGPTEGVVPGNALVVDPRRPFRKLNAFGNAFLNRFMCAQLPNPVLDSISIIDTPGILSGEKQRISRGYDFAAVLEWFAERVDRIILLFDAHKLDISDEFSEVIKALKNHEDKIRVVLNKADQIETQQLMRVYGALMWSLGKIINTPEVVRVYIGSFWSHPLLIPDNRKLFEAEEQDLFKDIQSLPRNAALRKLNDLIKRARLAKVHAYIISSLKKEMPNVFGKESKKKELVNNLGEIYQKIEREHQISPGDFPSLRKMQELLQTQDFSKFQALKPKLLDTVDDMLANDIARLMVMVRQEESLMPSQVVKGGAFDGTMNGPFGHGYGEGAGEGIDDVEWVVGKDKPTYDEIFYTLSPVNGKITGANAKKEMVKSKLPNTVLGKIWKLADVDKDGLLDDEEFALANHLIKVKLEGHELPADLPPHLVPPSKRRHE
partner: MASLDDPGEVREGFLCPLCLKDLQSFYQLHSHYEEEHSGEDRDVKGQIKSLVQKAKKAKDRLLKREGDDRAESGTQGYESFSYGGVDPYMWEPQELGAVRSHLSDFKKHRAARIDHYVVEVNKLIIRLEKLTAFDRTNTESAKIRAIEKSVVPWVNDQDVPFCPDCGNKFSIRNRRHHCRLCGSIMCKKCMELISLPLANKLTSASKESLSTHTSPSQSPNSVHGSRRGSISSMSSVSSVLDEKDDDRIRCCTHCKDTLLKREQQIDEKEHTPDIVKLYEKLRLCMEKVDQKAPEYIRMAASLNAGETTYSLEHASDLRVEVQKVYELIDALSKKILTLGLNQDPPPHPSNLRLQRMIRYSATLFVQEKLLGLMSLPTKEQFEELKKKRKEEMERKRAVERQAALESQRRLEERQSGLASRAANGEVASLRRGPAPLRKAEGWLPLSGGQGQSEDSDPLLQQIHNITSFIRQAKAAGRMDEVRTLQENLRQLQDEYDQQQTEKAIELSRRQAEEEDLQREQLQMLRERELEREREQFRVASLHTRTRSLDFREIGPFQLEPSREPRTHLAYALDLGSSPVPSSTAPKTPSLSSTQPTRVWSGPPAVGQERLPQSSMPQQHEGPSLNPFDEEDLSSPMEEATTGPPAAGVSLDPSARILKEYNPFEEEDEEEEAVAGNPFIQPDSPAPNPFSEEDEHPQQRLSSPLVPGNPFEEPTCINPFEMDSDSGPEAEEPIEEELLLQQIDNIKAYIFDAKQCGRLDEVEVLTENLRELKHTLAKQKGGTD
B2: Rabenosyn-5 (Homo sapiens), Q9H1K0 (parent)
chain: B1 partner
partner: B1 chain

Variants of: B1
Details: with rbns5_human RBSN

Variant | effect of a mutation on the interaction
MFSWVSKDARRKKEPELFQTVAEGLRQLYAQKLLPLEEHYRFHEFHSPALEDADFDNKPMVLLVGQYSTGKTTFIRHLIEQDFPGMRIGPEPTTDSFIAVMHGPTEGVVPGNALVVDPRRPFRKLNAFGNAFLNRFMCAQLPNPVLDSISIIDTPGILSGEKQRISRGYDFAAVLEWFAERVDRIILLFDAHKLDISDEFSEVIKALKNHEDKIRVVLNKADQIETQQLMRVYGALMWSLGKIINTPEVVRVYIGSFWSHPLLIPDNRKLFEAEEQDLFKDIQSLPRNAALRKLNDLIKRARLAKVHAYIISSLKKEMPNVFGKESKKKELVNNLGEIYQKIEREHQISPGDFPSLRKMQELLQTQDFSKFQALKPKLLDTVDDMLANDIARLMVMVRQEESLMPSQVVKGGAFDGTMNGPFGHGYGEGAGEGIDDVEWVVGKDKPTYDEIFYTLSPVNGKITGANAKKEMVKSKLPNTVLGKIAKLADVDKDGLLDDEEFALANHLIKVKLEGHELPADLPPHLVPPSKRRHE [W485A] | disrupting interaction

Variants of: B2
Details: with ehd1_human EHD1, Q9H4M9

Variant | effect of a mutation on the interaction
N662A;F664A | decreasing interaction strength
N626A;F628A;N662A;F664A | disrupting interaction strength
N626A;F628A | decreasing interaction strength
